System: Ex1Q48-CyPet/-YPet
Assay: FRASE assay: effect of added preformed fibrils/seeds on Ex1Q48-CyPet/-YPet polymerization
Format: biochemical, human
Details: sonicated Ex1Q48 seeds (~1,250 kDa); sensor 1:1 mixture, 1.2 μM
Description: (B) Effects of small, preformed Ex1Q48 seeds (1250 kDa) on Ex1Q48-CyPet and -YPet (1:1 mixture, total conc. 1.2 μM) co-aggregation. Data are mean±SEM (n=5).
(D) Effects of non-polyQ fibrils on Ex1Q48-CyPet and -YPet (1:1 mixture, total conc. 1.2 μM) co-aggregation. Data are mean±SD of triplicates.
Spontaneous Ex1Q48 aggregation was initiated by addition of 14 U PreScission protease (GE Healthcare) per nmol purified GST-Ex1Q48 fusion protein (2 μM). The aggregation reaction was performed in 50 mM Tris-HCl pH 7.4, 150 mM NaCl, 1 mM EDTA and 1 mM DTT at 25° C. and constant agitation (450 rpm) for 24 h. […]
Purified GST-Ex1Q48-CyPet and GST-Ex1Q48-YPet were diluted in aggregation buffer at an equimolar ratio to a final concentration of 1.2 μM (0.6 μM each) with 14 U PSP per nmol sensor proteins if not stated otherwise. […] For quantification of seeding-competent HTT species in tissue samples, the sensor-protein mixture was supplemented with up to 10% (v/v) tissue homogenate. Fluorescence signals were measured every 20 min following a 5 s pulse of vertical shaking with a Tecan M200 fluorescence plate reader at 25° C. for up to 48 h. CyPet donor fluorescence was measured at excitation (Ex): 435 nm/emission (Em): 475 nm; YPet acceptor fluorescence at Ex: 500 nm/Em: 530 nm; the FRET channel (DA) was recorded at Ex: 435 nm/Em: 530 nm. […]

B1: Ex1Q48 seeds: preformed recombinant mutant huntingtin exon 1 (48 glutamines) aggregates, sonicated, ~1,250 kDa (protein)
chain: MATLEKLMKAFESLKSFQQQQQQQQQQQQQQQQQQQQQQQQQQQQQQQQQQQQQQQQQQQQQQQQPPPPPPPPPPPQLPQPPPQAQPLLPQLQPPPPPPPPPPGPAAAEEPLHRP
  threshold for detecting seeds in FRASE assay: ~60 fM

Reference: patent US12287344B2, “Fret-based method to measure seeding activity of misfolded protein species in biological samples” (MAX-DELBRÜCK-CENTRUM FÜR MOLEKULARE MEDIZIN IN DER …, priority 2018, dated 2025)
